Four substances from article PMC4186791 can be followed below.

Where only a bound is given, the exact number is not on record here.

Assay in all cases: two-hybrid; LexA-Ubx variant (pLexA) and B42-partner (pB42) co-transformed into S. cerevisiae EGY48 carrying p8op-LacZ; blue/white colonies on X-gal and liquid β-galactosidase (ONPG) assay after galactose induction at 30°C, reported in Miller units
For test [1], the target named is UbxIVa Pro4 (Drosophila melanogaster).
Test [2] has as its target UbxIb N103 Pro4 (Drosophila melanogaster) (UniProt P83949).
Test [3] deals with UbxIb Δ103–216 (Drosophila melanogaster) (UniProt P83949).
Sequence of UbxIb Δ103–216 (Drosophila melanogaster) (P83949 other isoform, or with tags, fused parts or gaps mutant): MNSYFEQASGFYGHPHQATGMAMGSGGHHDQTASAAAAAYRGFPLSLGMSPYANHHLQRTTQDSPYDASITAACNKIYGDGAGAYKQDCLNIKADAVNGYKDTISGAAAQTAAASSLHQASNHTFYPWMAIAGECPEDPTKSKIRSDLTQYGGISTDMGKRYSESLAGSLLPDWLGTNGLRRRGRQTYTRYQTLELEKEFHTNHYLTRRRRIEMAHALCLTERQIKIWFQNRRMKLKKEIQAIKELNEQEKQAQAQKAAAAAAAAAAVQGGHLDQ

Sequence of UbxIb N103 Pro4 (Drosophila melanogaster) (P83949 other isoform, or with tags, fused parts or gaps amino acids 2–102 removed (N103) | A226P | Q233P): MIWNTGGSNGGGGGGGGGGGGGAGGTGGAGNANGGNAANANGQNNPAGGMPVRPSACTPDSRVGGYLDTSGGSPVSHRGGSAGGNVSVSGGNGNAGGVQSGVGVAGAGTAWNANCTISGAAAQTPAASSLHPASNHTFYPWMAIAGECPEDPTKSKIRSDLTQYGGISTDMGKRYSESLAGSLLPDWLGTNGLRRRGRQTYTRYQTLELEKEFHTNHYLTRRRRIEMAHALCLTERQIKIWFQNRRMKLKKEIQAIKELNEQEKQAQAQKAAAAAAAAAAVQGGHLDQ
Sequence of Ribosomal protein L22 (P50887 whole entry): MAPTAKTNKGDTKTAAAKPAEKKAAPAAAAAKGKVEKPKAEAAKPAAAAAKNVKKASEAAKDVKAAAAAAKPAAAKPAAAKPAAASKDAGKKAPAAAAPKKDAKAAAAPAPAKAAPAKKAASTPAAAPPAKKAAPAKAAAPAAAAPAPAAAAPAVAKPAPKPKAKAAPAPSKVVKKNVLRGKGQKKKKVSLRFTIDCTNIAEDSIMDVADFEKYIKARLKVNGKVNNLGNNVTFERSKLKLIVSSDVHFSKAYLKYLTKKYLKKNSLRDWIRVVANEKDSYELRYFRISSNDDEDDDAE
Sequence of Dishevelled (P51140 whole entry): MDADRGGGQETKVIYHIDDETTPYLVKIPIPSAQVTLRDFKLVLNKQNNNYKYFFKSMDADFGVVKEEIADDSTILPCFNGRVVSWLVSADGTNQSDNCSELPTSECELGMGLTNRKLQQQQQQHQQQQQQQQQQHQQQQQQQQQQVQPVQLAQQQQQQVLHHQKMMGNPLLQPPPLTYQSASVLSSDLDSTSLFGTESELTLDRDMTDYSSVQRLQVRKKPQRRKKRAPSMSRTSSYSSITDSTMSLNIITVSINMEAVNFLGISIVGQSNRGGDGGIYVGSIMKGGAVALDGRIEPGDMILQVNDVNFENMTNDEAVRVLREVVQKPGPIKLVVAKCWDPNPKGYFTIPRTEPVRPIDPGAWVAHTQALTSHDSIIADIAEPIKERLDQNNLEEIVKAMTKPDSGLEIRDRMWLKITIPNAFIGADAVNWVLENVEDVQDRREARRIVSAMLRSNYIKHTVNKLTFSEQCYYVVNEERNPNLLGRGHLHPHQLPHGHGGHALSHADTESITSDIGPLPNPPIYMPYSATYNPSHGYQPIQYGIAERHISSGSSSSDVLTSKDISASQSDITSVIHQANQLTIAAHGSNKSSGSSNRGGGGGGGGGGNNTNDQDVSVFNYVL
Sequence of 14-3-3ε (P92177 whole entry): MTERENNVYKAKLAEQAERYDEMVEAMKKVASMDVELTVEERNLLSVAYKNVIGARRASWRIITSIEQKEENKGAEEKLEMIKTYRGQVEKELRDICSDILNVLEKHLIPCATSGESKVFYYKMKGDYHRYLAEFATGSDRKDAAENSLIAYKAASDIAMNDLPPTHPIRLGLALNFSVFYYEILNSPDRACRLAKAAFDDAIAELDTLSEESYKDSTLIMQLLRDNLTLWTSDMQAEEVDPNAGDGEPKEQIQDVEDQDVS

For the substance “14-3-3ε (from UniProt P92177 1-262) (natural protein)”, in test [1], the percent of reporter signal lost relative to UbxIb Pro4 was more than 59%.

Consider Apontic (natural protein), for which the percent of reporter signal lost relative to UbxIb Pro4 in test [2], in test [3] and in test [1] was more than 59% in each case.

For “Dishevelled (from UniProt P51140 1-623) (natural protein)”, in test [1], the percent of reporter signal lost relative to UbxIb Pro4 was more than 59%.

As for “Ribosomal protein L22 (from UniProt P50887 1-299) (natural protein)”, in test [1], the percent of reporter signal lost relative to UbxIb Pro4 was more than 59%.
